The data set concerns the molecule itself. In words: cryo-EM structure.

B1: truncated mouse mIgM heavy chain lacking the two Fab arms (of IgM BCRΔFab; vector pMS-RL2b) (receptor)
heavy: AEAAAKEAAAKEAAAKAAVAEMNPNVNVFVPPRDGFSGPAPRKSKLICEATNFTPKPITVSWLKDGKLVESGFTTDPVTIENKGSTPQTYKVISTLTISEIDWLNLNVYTCRVDHRGLTFLKNVSSTCAASPSTDILTFTIPPSFADIFLSKSANLTCLVSNLATYETLNISWASQSGEPLETKIKIMESHPNGTFSAKGVASVCVEDWNNRKEFVCTVTHRDLPSPQKKFISKPNEVHKHPPAVYLLPPAREQLNLRESATVTCLVKGFSPADISVQWLQRGQLLPQEKYVTSAPMPEPGAPGFYFTHSILTVTEEEWNSGETYTCVVGHEALPHLVTERTVDKSTEGEVNAEEEGFENLWTTASTFIVLFLLSLFYSTTVTLFKVK
Take B1: the binding result was “binds”.

The values are drawn from PMC10499536 (Nature, 2022).
